Experiment [1] addresses GST-p300 (p300 CH1 domain, residues 330–420) (Homo sapiens, UniProt Q09472). The experiment in a line: Fluorescence anisotropy direct titration of GFP-HIF-1α776–826 variants with GST-p300. It is filed as binding. The note with it: 50 nM GFP-HIF-1α776–826 variant, GST-p300 serial dilution, 25 mM Tris–HCl, 150 mM NaCl, 1 mM DTT, pH 7.4, 27 °C, 1:1 model, ± standard error of fitted value, technical triplicates. An excerpt: To experimentally compare the predictions, we carried out an in vitro biophysical study of several HIF-1α sequence variants. We assessed predicted hot residues and their interactions with p300 using the NMR structure to visualize the structural basis behind the predictions (See ESI, ^† Fig. S2). These analyses helped refine a first series of alanine variants to prepare. […] HIF-1α776–826 sequence variants were recombinantly prepared based on the predictions to test their binding to the recombinantly prepared p300 (Fig. 2). Given the length of the peptide ([…]), this was considered advantageous as it obviates the need to chemically synthesise, label and purify multiple variants. As the C-TAD domain is unstructured in isolation it was recombinantly expressed as a fusion protein with GFP. The green-fluorescent protein (GFP) tag was used for fluorescence anisotropy (FA) experiments to determine the binding affinity of HIF-1α776–826 C-TAD variants to p300. As the CH1 domain of p300 is a small domain of 11 kDa it was recombinantly expressed as a fusion protein with GST to increase its size and thus the signal to noise in the FA experiments. We established an assay where the interaction between GFP-tagged wt HIF-1α776–826 and GST-tagged p300 was monitored by FA, using the fluorescence of GFP. GST dimerises with single digit nM Kd[61] (and in our hands exists as a dimer in size exclusion chromatography analyses, see ESI, ^† Fig. S15 for protein characterization data), thus two molecules of GFP-HIF-1α could bind to the GST-p300 dimer (Fig. 2a). We make the assumption that each p300 binding site behaves independently and analyse the binding isotherm using a 1 : 1 model.
Fig. 2 Biophysical analyses on the effects of HIF-1α sequence variant p300 binding affinity. (a) schematic depicting the equilibrium for interaction of GFP-HIF-1α776–826 variants and GST-p300 as studied by fluorescence anisotropy; (b) representative fluorescence anisotropy titration data for sAV and mAV GFP-HIF-1α776–826 peptides interacting with GST-p300 (25 mM Tris–HCl, 150 mM NaCl, 1 mM DTT, pH 7.4), error bars represent standard deviation of technical triplicates; (c) raw ITC data (upper) and fitted thermogram (lower) for the interaction of GFP-HIF-1α776–826 peptides with p300 (37 °C in 25 mM Tris–HCl, 150 mM NaCl, 1 mM DTT, pH 7.4) using 10 μM p300 in the cell and 100 μM GFP-HIF-1α776–826 variant in the syringe; error bars represent estimated integration errors (d) thermodynamic signatures for each interaction. […]
7.4 buffer or dialysed into 25 mM Tris, 150 mM NaCl, 1 mM DTT pH 7.4 buffer.
GSTp300 protein was serially diluted in buffer (25 mM Tris-HCl, 150 mM NaCl, 1mM DTT, pH 7.4) and GFP-HIF-1α (50nM final concentration) was added, the plates were read after 0 min, 60 min, 4 h and 24 h, and incubated at room temperature in between. Each experiment was run in triplicate and the fluorescence anisotropy measured using an EnVision 2103 MultiLabel plate reader (Perkin Elmer) with excitation at 480 nm and emission at 535 nm (30 nm bandwidths). The recorded temperature for all measurements was 27°C ± 1°C. In parallel, a control experiment was performed in which no GFP-HIF was added and the volume made up with additional buffer, this blank was deducted from the raw data for each of the three repeats.
The intensity was calculated for each point using eqn (1) and used to calculated anisotropy […]
using eqn (2). From a plot of anisotropy against GST-p300 concentration the minimum and maximum anisotropies were obtained using a logistic sigmoidal fit in OriginPro 8.6. This allowed the conversion to fraction bound (eqn (3)). The data were then fitted using eqn (4) in OriginPro 8.6 to determine the dissociation constant, Kd. […]
5 µl injections and 180 s spacing between injections, for 40 injections. Titrations were performed in 40 mM Na-phosphate, pH 7.5 100 mM NaCl, 1 mM DTT buffer except for GFP- […]
In general terms: Fluorescence polarisation rises when a labelled molecule tumbles more slowly, as on binding a larger partner.

The target of experiment [2] is GST-tagged p300 CH1 domain (residues 330–420) (UniProt Q09472). The experiment in a line: fluorescence polarisation; fluorescence anisotropy by the fluorescence of GFP; GFP-HIF-1α 776–826 variants with GST-p300; 25 mM Tris–HCl, 150 mM NaCl, 1 mM DTT, pH 7.4; 1:1 model, each p300 site of the GST dimer taken as independent.

Broadly, the Kd is a measure of binding affinity in units of concentration. Read a high Kd as lower affinity.

No end group written: not given here.

Chain of GST-p300 (p300 CH1 domain, residues 330–420) (Q09472 330-420): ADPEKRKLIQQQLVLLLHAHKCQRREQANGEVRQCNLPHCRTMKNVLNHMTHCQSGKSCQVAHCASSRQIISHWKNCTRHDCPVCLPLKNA

For the substance “D799A E801A N803A: GFP-HIF-1α776–826 C-TAD multiple alanine variant ({GFP}-SDLACRLLGQSMDESGLPQLTSYACAVAAPIQGSRNLLQGEELLRALDQVN; cysteine pairing not given here)”, the Kd in experiment [1] is 590 ± 302 nM.

“D799A: GFP-HIF-1α776–826 C-TAD single alanine variant D799A ({GFP}-SDLACRLLGQSMDESGLPQLTSYACEVNAPIQGSRNLLQGEELLRALDQVN; cysteine pairing not given here)” came in with a dissociation constant (Kd) in experiment [1] of 114 ± 53 nM.

The substance “E801A L822A: GFP-HIF-1α776–826 C-TAD multiple alanine variant ({GFP}-SDLACRLLGQSMDESGLPQLTSYDCAVNAPIQGSRNLLQGEELLRAADQVN; cysteine pairing not given here)” returned a Kd in experiment [1] of 224 ± 18 nM.

In the case of “E817A: GFP-HIF-1α776–826 C-TAD single alanine variant E817A ({GFP}-SDLACRLLGQSMDESGLPQLTSYDCEVNAPIQGSRNLLQGEALLRALDQVN; cysteine pairing not given here)”, in experiment [1], the affinity, expressed as Kd, was 128 ± 11 nM.

Turning to “GFP-HIF-1α 776–826 D799A (from UniProt Q16665 776-826) (domain or fragment)”, in experiment [2], the Kd is 114 nM.

“GFP-HIF-1α 776–826 D799A E801A N803A (from UniProt Q16665 776-826) (domain or fragment)” yielded a Kd in experiment [2] of 590 nM.

On to “GFP-HIF-1α 776–826 E801A L822A (from UniProt Q16665 776-826) (domain or fragment)”, for which, in experiment [2], the Kd turned out to be 224 nM.

As to “GFP-HIF-1α 776–826 E817A (from UniProt Q16665 776-826) (domain or fragment)”, in experiment [2], the dissociation constant Kd came out at 128 nM.

In experiment [2], “GFP-HIF-1α 776–826 L795A (from UniProt Q16665 776-826) (domain or fragment)” showed a Kd of 118 nM.

Consider “GFP-HIF-1α 776–826 L795A D799A (from UniProt Q16665 776-826) (domain or fragment)”, for which the Kd in experiment [2] stood at 255 nM.

In turn, “GFP-HIF-1α 776–826 L795A D799A L818A L822A V825A (from UniProt Q16665 776-826) (domain or fragment)” came in with a Kd in experiment [2] of 153 nM.

“GFP-HIF-1α 776–826 L795A D799A L822A (from UniProt Q16665 776-826) (domain or fragment)” yielded a Kd in experiment [2] of 174 nM.

Substance “GFP-HIF-1α 776–826 L818A (from UniProt Q16665 776-826) (domain or fragment)” showed a Kd in experiment [2] of 237 nM.

With “GFP-HIF-1α 776–826 L818A L822A (from UniProt Q16665 776-826) (domain or fragment)”, in experiment [2], the Kd turned out to be 126 nM.

As for “GFP-HIF-1α 776–826 L818A L822A D823A (from UniProt Q16665 776-826) (domain or fragment)”, the equilibrium dissociation constant (Kd) in experiment [2] worked out at 247 nM.

In the case of “GFP-HIF-1α 776–826 L818A L822A V825A (from UniProt Q16665 776-826) (domain or fragment)”, the Kd in experiment [2] amounted to 54 nM.

For the substance “GFP-HIF-1α 776–826 L822A (from UniProt Q16665 776-826) (domain or fragment)”, the Kd in experiment [2] stood at 109 nM.

The substance “GFP-HIF-1α 776–826 N803A (from UniProt Q16665 776-826) (domain or fragment)” returned a Kd in experiment [2] of 120 nM.

“GFP-HIF-1α 776–826 Q824A (from UniProt Q16665 776-826) (domain or fragment)”: the Kd in experiment [2] turned out to be 31 nM.

Regarding “GFP-HIF-1α 776–826 S797A (from UniProt Q16665 776-826) (domain or fragment)”, the Kd in experiment [2] came out at 37 nM.

“GFP-HIF-1α 776–826 V825A (from UniProt Q16665 776-826) (domain or fragment)”: the dissociation constant (Kd) in experiment [2] was found to be 198 nM.

Take “L795A D799A L818A L822A V825A: GFP-HIF-1α776–826 C-TAD multiple alanine variant ({GFP}-SDLACRLLGQSMDESGLPQATSYACEVNAPIQGSRNLLQGEEALRAADQAN; cysteine pairing not given here)”: in experiment [1], binding was characterised by a dissociation constant (Kd) of 153 ± 19 nM.

In the case of “L795A D799A L822A: GFP-HIF-1α776–826 C-TAD multiple alanine variant ({GFP}-SDLACRLLGQSMDESGLPQATSYACEVNAPIQGSRNLLQGEELLRAADQVN; cysteine pairing not given here)”, in experiment [1], the Kd came to 174 ± 45 nM.

In experiment [1], “L795A D799A: GFP-HIF-1α776–826 C-TAD multiple alanine variant ({GFP}-SDLACRLLGQSMDESGLPQATSYACEVNAPIQGSRNLLQGEELLRALDQVN; cysteine pairing not given here)” registered a Kd of 255 ± 44 nM.

As for “L795A: GFP-HIF-1α776–826 C-TAD single alanine variant L795A ({GFP}-SDLACRLLGQSMDESGLPQATSYDCEVNAPIQGSRNLLQGEELLRALDQVN; cysteine pairing not given here)”, the Kd in experiment [1] amounted to 118 ± 19 nM.

In experiment [1], “L818A L822A D823A: GFP-HIF-1α776–826 C-TAD multiple alanine variant ({GFP}-SDLACRLLGQSMDESGLPQLTSYDCEVNAPIQGSRNLLQGEEALRAAAQVN; cysteine pairing not given here)” came in with a Kd of 247 ± 75 nM.

For “L818A L822A V825A: GFP-HIF-1α776–826 C-TAD multiple alanine variant ({GFP}-SDLACRLLGQSMDESGLPQLTSYDCEVNAPIQGSRNLLQGEEALRAADQAN; cysteine pairing not given here)”, binding in experiment [1] was put at a Kd of 54 ± 33 nM.

On to “L818A L822A: GFP-HIF-1α776–826 C-TAD multiple alanine variant ({GFP}-SDLACRLLGQSMDESGLPQLTSYDCEVNAPIQGSRNLLQGEEALRAADQVN; cysteine pairing not given here)”, for which, in experiment [1], the Kd was found to be 126 ± 33 nM.

“L818A: GFP-HIF-1α776–826 C-TAD single alanine variant L818A ({GFP}-SDLACRLLGQSMDESGLPQLTSYDCEVNAPIQGSRNLLQGEEALRALDQVN; cysteine pairing not given here)” had a Kd in experiment [1] of 237 ± 40 nM.

As for “L822A: GFP-HIF-1α776–826 C-TAD single alanine variant L822A ({GFP}-SDLACRLLGQSMDESGLPQLTSYDCEVNAPIQGSRNLLQGEELLRAADQVN; cysteine pairing not given here)”, in experiment [1], binding was characterised by a dissociation constant (Kd) of 109 ± 66 nM.

Take “N803A: GFP-HIF-1α776–826 C-TAD single alanine variant N803A ({GFP}-SDLACRLLGQSMDESGLPQLTSYDCEVAAPIQGSRNLLQGEELLRALDQVN; cysteine pairing not given here)”: the affinity in experiment [1], expressed as Kd, was 120 ± 17 nM.

Substance “Q824A: GFP-HIF-1α776–826 C-TAD single alanine variant Q824A ({GFP}-SDLACRLLGQSMDESGLPQLTSYDCEVNAPIQGSRNLLQGEELLRALDAVN; cysteine pairing not given here)” showed a Kd in experiment [1] of 31 ± 8 nM.

In experiment [1], “S797A: GFP-HIF-1α776–826 C-TAD single alanine variant S797A ({GFP}-SDLACRLLGQSMDESGLPQLTAYDCEVNAPIQGSRNLLQGEELLRALDQVN; cysteine pairing not given here)” came in with a Kd of 37 ± 16 nM.

Source of the values: publication PMC9092470, “Understanding p300-transcription factor interactions using sequence variation and hybridization†” (RSC Chemical Biology, 2022).
